Our source for the Kd values is paper PMC6100724 (2018).

The assay addresses Scribble PDZ1 (His-tagged, aa 719-829) (human, UniProt Q14160 719-829). The experiment in a line: ITC. In general terms: Isothermal titration calorimetry measures the heat released or taken up as one component is titrated into another.

Chain of Scribble PDZ1 (His-tagged, aa 719-829) (Q14160 719-829): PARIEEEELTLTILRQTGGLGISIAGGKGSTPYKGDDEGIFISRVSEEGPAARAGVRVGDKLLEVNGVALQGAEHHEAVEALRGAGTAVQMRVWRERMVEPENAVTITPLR

Consider ARVSKETPL [ARVSKETPL (MAPK12 peptide, unphosphorylated)], for which the Kd – broadly, the constant that tells how readily two partners part at equilibrium – worked out at 1600 nM.
